Measured values from patent US20190330360A1 (IGM BIOSCIENCES, published 2019).

T1: GITR on activated human T cells (human, UniProt Q9Y5U5 26-241)
T1 construct: also called GITR on CD4 T cells
T1 sequence: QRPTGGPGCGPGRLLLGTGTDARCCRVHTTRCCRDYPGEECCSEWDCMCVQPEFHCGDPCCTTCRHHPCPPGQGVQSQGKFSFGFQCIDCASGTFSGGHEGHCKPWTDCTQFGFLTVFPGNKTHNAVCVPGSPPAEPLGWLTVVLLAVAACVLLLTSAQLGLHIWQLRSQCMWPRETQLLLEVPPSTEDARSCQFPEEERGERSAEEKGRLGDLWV


Target: T1, GITR on activated human T cells
Assay: flow cytometry, binding dose response on activated human T cells
Protocol: To assess the ability of IgG and IgM antibodies to bind GITR on activated T cells, a binding assay was performed by the following method. Tissue culture plates were coated with 5 μg/mL of anti-CD3 (eBioscience #16-0037-85) at 4° C. overnight, then washed 2 times with PBS. Purified human CD3 T cells (Astarte Biologics) were seeded at 0.1×10⁶ cells/well and incubated with 2 μg/mL of soluble anti-CD28 (Invitrogen #16-0289-85) for 4 days at 37° C. Cells were washed with FACS Stain Buffer (BD Pharmigen Catalog #554656) and 1×10⁵ cells were stained with serial dilutions of anti-GITR antibodies, 5 μg/mL IgG isotype control (Jackson ImmunoResearch #009-000-003), or 5 μg/mL IgM isotype control (Jackson ImmunoResearch #009-000-012) for 30 minutes at 4° C. Cells were washed twice, then stained for 30 minutes at 4° C. with 5 μg/mL anti-human kappa-AF488 secondary antibody (Biolegend #316512), and anti-human CD4-APC (BD Biosciences #555349) and anti-human CD25-PerCP (Biolegend #356111) for immunophenotyping. Cells were washed twice, resuspended in FACS Stain Buffer, and acquired by flow cytometry. The results are shown in FIG. 3A (Anti-GITR IgG and IgM #1) and FIG. 3B (Anti-GITR IgG and IgM #2). Filled histograms, Isotype controls; Open histograms, Anti-GITR antibodies. All the constructs bound to the activated T cells.

Row | Binder | binding result
1 | Anti-GITR IgG #2 (antibody, V domains shown, VH and VL put into IgG format; Detected with anti-human kappa; also called Anti-GITR #2 IgG; Anti-GITR #2 (IgG format)) VH: QVQLVESGGGVVQPGRSLRLSCAASGFTFSSYGMHWVRQAPGKGLEWVAVIWYEGSNKYYADSVKGRFTISRDNSKNTLYLQMNSLRAEDTAVYYCARGGSMVRGDYYYGMDVWGQGTTVTVSS VL: AIQLTQSPSSLSASVGDRVTITCRASQGISSALAWYQQKPGKAPKLLIYDASSLESGVPSRFSGSGSGTDFTLTISSLQPEDFATYYCQQFNSYPYTFGQGTKLEIK | binds
2 | Anti-GITR IgG #1 (antibody, V domains shown, VH and VL put into IgG format; Detected with anti-human kappa; also called Anti-GITR #1 IgG; Anti-GITR #1 (IgG format)) VH: QVQLVESGGGVVQPGRSLRLSCAASGFTFSSYGMHWVRQAPGKGLEWMAVIWYVGSNKYYADSVKGRFTISRDNSKNTLYLQMNSLRAEDTAVYYCARGGELGRDYYSGMDVWGQGTTVTVSS VL: DIQMTQSPSSLSASVGDRVTITCRASQGIRNDLGWYQQKPGKAPKRLIYAASSLQSGVPSRFSGSGSGTEFTLTISSLQPEDFATYYCQQHNSYPWTFGQGTKVEIKR | binds
